Measured values taken from the supplement of paper PMC10126150.
± gives the standard deviation of the averaged measurements.

System: ATP
Assay: switch fluorescence ratio, 500 uM ATP over buffer (Cy3 cluster intensity, sum of 5 cycles each) (fold (ratio)); higher = stronger signal-on switching upon ATP binding; sequences stand for … in TCGTCGGCAGCGTCAGATGTGTATAAGAGACAGTTTTTTTTTTTTTTTTTTTTTTTTT…TC
Settings: aptamer strand: ATP DNA aptamer (quencher-CACCTGGGGGAGTATTGCGGAGGAAGG + anchor), 100 nM annealed; ATP concentration: 500 uM
Procedure, shortened: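 Values give the fluorescence ratio for each switch-domain sequence, averaged from per-cluster ratios of summed target-cycle to summed buffer-cycle Cy3 intensity. The Cy3-labelled switching-strand clusters sat on a modified Illumina MiSeq flow-cell, were annealed to 100 nM quencher-labelled ATP aptamer, and were imaged in selection buffer, then after 15 min with 500 uM ATP at 22 °C. Five cycles ran with NaOH stripping and re-annealing between them, and clusters outside 100-1000 RFU were excluded.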
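Further: ATP exposure 15 min at 22 °C before imaging.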

| Sequence | switch fluorescence ratio |
| --- | --- |
| ATATGAATAG | 1.01 ± 0.018 |
| ATATGAGCAG | 1.02 ± 0.024 |
| ATATGATGTG | 1.01 ± 0.03 |
| ATATGCCCTA | 0.9674 ± 0.0077 |
| ATATGGATAC | 1.05 ± 0.045 |
| ATATGGATGA | 0.96 ± 0.03 |
| ATATGGATTG | 1 ± 0.015 |
| ATATGGCACG | 1.032 ± 0.0014 |
| ATATGGGAAA | 0.978 ± 0.025 |
| ATATGGGCTT | 0.986 ± 0.014 |
| ATATGGGGTG | 1.05 ± 0.046 |
| ATATGGGTTA | 0.9912 ± 0.001 |
| ATATGGTGAT | 1 ± 0.057 |
| ATATGTGTGA | 0.968 ± 0.029 |
| ATATGTGTTT | 1.05 ± 0.018 |
| ATATGTTTG | 0.973 ± 0.047 |
| ATATTAATTT | 0.989 ± 0.023 |
| ATATTAGACG | 1.04 ± 0.036 |
| ATATTATCAG | 0.986 ± 0.014 |
| ATATTCATCT | 0.9861 ± 0.0056 |
| ATATTCGGCG | 0.975 ± 0.022 |
| ATATTCGTG | 0.985 ± 0.013 |
| ATATTCTACT | 1.025 ± 3.1e-05 |
| ATATTCTAGA | 0.989 ± 0.029 |
| ATATTCTGGG | 0.969 ± 0.015 |
| ATATTGGCAT | 1.02 ± 0.026 |

| Sequence | switch fluorescence ratio |
| --- | --- |
| ATATTGGCGC | 1.01 ± 0.019 |
| ATATTGGGTA | 0.997 ± 0.022 |
| ATATTGTGAC | 1.032 ± 0.004 |
| ATATTTGATA | 1.01 ± 0.039 |
| ATATTTGGGC | 0.975 ± 0.034 |
| ATATTTGTGG | 0.9843 ± 0.0088 |
| ATATTTTAGG | 0.996 ± 0.031 |
| ATATTTTGGC | 1.04 ± 0.034 |
| ATATTTTTTT | 1 ± 0.03 |
| ATCAAAACTT | 1.03 ± 0.013 |
| ATCAAAATAA | 1.06 ± 0.059 |
| ATCAAAATTG | 1.01 ± 0.027 |
| ATCAAAGCGC | 1.03 ± 0.023 |
| ATCAAGCAGT | 1.41 ± 0.47 |
| ATCAAGCCAA | 1.005 ± 0.0018 |
| ATCAAGGGGT | 1.01 ± 0.019 |
| ATCAAGTCTG | 0.9898 ± 0.0028 |
| ATCAATTGGT | 1.013 ± 0.0052 |
| ATCAATTTAA | 0.976 ± 0.039 |
| ATCAATTTCT | 0.974 ± 0.014 |
| ATCACGGGAA | 1.055 ± 0.0074 |
| ATCACGGTGC | 1.1 ± 0.061 |
| ATCAGAACAA | 1.01 ± 0.0069 |
| ATCAGAGGGG | 1.03 ± 0.019 |
| ATCAGATAGC | 0.977 ± 0.018 |
| ATCAGCAACG | 1.01 ± 0.026 |

| Sequence | switch fluorescence ratio |
| --- | --- |
| ATCAGGAAAT | 1.01 ± 0.017 |
| ATCAGGCGTA | 0.975 ± 0.038 |
| ATCAGGGAGT | 1 ± 0.011 |
| ATCAGTGAGA | 1.03 ± 0.032 |
| ATCAGTGGGG | 0.991 ± 0.042 |
| ATCAGTGGTC | 0.936 ± 0.021 |
| ATCAGTTTTC | 0.985 ± 0.0013 |
| ATCATAGCCG | 1.07 ± 0.14 |
| ATCATGCATT | 0.989 ± 0.025 |
| ATCATGGTTG | 1.002 ± 0.0063 |
| ATCATGTACA | 0.996 ± 0.024 |
| ATCATTAACT | 1.02 ± 0.013 |
| ATCATTCTTC | 0.977 ± 0.034 |
| ATCATTGAA | 0.9864 ± 0.0087 |
| ATCATTTAAT | 1.009 ± 0.0054 |
| ATCATTTTTT | 0.9877 ± 0.0061 |
| ATCCCTTGAG | 0.992 ± 0.032 |
| ATCCGAGGGG | 1.03 ± 0.05 |
| ATCCGCGCGT | 1 ± 0.014 |
| ATCCGCTAGT | 2.16 ± 0.19 |
| ATCCGGACCC | 1.08 ± 0.1 |
| ATCCGGGGAA | 1.02 ± 0.0032 |
| ATCCGGTTAC | 5.17 ± 0.68 |
| ATCCGGTTAT | 1.03 ± 0.016 |
| ATCCGTGATA | 1.77 ± 0.021 |
| ATCCTAAATT | 1.02 ± 0.0024 |

| Sequence | switch fluorescence ratio |
| --- | --- |
| ATCCTAATGG | 0.983 ± 0.012 |
| ATCCTAGTTT | 1.016 ± 0.00087 |
| ATCCTATTT | 1.01 ± 0.028 |
| ATCCTATTTG | 1.0056 ± 0.0008 |
| ATCCTCGGCC | 1.52 ± 0.039 |
| ATCCTCGTAA | 2.44 ± 0.32 |
| ATCCTCTGCC | 3.16 ± 0.72 |
| ATCCTGCTTT | 1.01 ± 0.069 |
| ATCGAAACCC | 1.05 ± 0.046 |
| ATCGACATAG | 0.9985 ± 0.006 |
| ATCGACGGG | 1.008 ± 0.0058 |
| ATCGAGAGGG | 1.01 ± 0.04 |
| ATCGAGGCAC | 1.056 ± 0.0061 |
| ATCGATACTT | 1.067 ± 0.0098 |
| ATCGATAGTG | 1 ± 0.03 |
| ATCGATTTTT | 1 ± 0.032 |
| ATCGCGGATT | 0.994 ± 0.023 |
| ATCGCGGGCC | 1.03 ± 0.036 |
| ATCGGAACCT | 2.15 ± 0.1 |
| ATCGGACGCT | 1.06 ± 0.023 |
| ATCGGAGGTG | 1.02 ± 0.062 |
| ATCGGCAGTT | 1 ± 0.015 |
| ATCGGCATGC | 1.19 ± 0.019 |
| ATCGGGAGAC | 1.27 ± 0.21 |
| ATCGGGATAG | 1.04 ± 0.044 |
| ATCGGGGCAC | 1.1 ± 0.11 |

| Sequence | switch fluorescence ratio |
| --- | --- |
| ATCGGGGCGG | 0.993 ± 0.031 |
| ATCGGGTTAG | 0.998 ± 0.016 |
| ATCGGTAATT | 0.997 ± 0.029 |
| ATCGGTCATG | 0.993 ± 0.013 |
| ATCGGTGAGG | 0.971 ± 0.03 |
| ATCGGTGTGC | 0.981 ± 0.069 |
| ATCGTAGGTC | 0.982 ± 0.052 |
| ATCGTAGGTG | 1.04 ± 0.12 |
| ATCGTATACC | 1.01 ± 0.022 |
| ATCGTCATAT | 1 ± 0.036 |
| ATCGTGAGGG | 1 ± 0.053 |
| ATCGTGTGTC | 0.987 ± 0.071 |
| ATCTAGGGTC | 1.01 ± 0.031 |
| ATCTAGGTAT | 1 ± 0.029 |
| ATCTAGTACC | 0.999 ± 0.046 |
| ATCTATGATA | 0.954 ± 0.011 |
| ATCTATTATT | 1.012 ± 0.006 |
| ATCTCGCAGG | 1.08 ± 0.031 |
| ATCTCGTTA | 1.04 ± 0.053 |
| ATCTGAGTTA | 1.03 ± 0.058 |
| ATCTGATCGA | 0.96 ± 0.037 |
| ATCTGATTGA | 0.97124 ± 0.00072 |
| ATCTGGAGTT | 1.01 ± 0.018 |
| ATCTGGCGTC | 0.998 ± 0.033 |
| ATCTGGTATG | 0.957 ± 0.037 |
| ATCTGGTGCT | 1.052 ± 0.0059 |

| Sequence | switch fluorescence ratio |
| --- | --- |
| ATCTGTCCAG | 1 ± 0.071 |
| ATCTGTGAGG | 1.019 ± 0.0063 |
| ATCTTATCGT | 0.982 ± 0.027 |
| ATCTTCTAGT | 0.953 ± 0.041 |
| ATCTTGGACG | 1.05 ± 0.027 |
| ATCTTTACCT | 1.26 ± 0.036 |
| ATCTTTAGTA | 1 ± 0.014 |
| ATCTTTGGTA | 0.9826 ± 0.0074 |
| ATCTTTTTGT | 1.014 ± 0.005 |
| ATGAAAATAC | 1.01 ± 0.03 |
| ATGAAAATTT | 1.05 ± 0.017 |
| ATGAAAGGGA | 1.02 ± 0.042 |
| ATGAAAGTGC | 1.02 ± 0.017 |
| ATGAAATTTT | 1.0061 ± 0.00088 |
| ATGAAGCAGG | 1.15 ± 0.058 |
| ATGAAGGGGG | 1.03 ± 0.042 |
| ATGAAGGGGT | 0.959 ± 0.033 |
| ATGAATAATG | 1.01 ± 0.026 |
| ATGAATTTGC | 0.979 ± 0.044 |
| ATGAATTTGT | 1.01 ± 0.032 |
| ATGACAGGAT | 1 ± 0.023 |
| ATGACCGGGG | 1.02 ± 0.023 |
| ATGACGTATT | 1.02 ± 0.052 |
